B1: HDV Ribozyme (parent)
chain: GGCCGGCAUGGUCCCAGCCUCCUCGCUGGCGCCGGCUGGGCAACAUUCCGAGGGGACCGUCCCCUCGGUAAUGGCGAAUGGGACCCA

Variants of: B1
Experiment: self-cleavage, relative activity (ratio to wild type); higher = more cleavage; co-transcriptional

| Variant | self-cleavage |
| --- | --- |
| C22G G82A | 0.0723 |
| C22G G82U | 0.0652 |
| U23C C84G | 0.739 |
| U23A C41U | 1.14 |
| U23G A51G | 0.8 |
| U23G A51C | 0.63 |
| U23G A51U | 0.705 |
| C22U G52C | 0.635 |
| C22U C26U | 0.847 |
| C22U C26G | 0.492 |
| U23A G40C | 0.181 |
| U23A G29A | 0.0804 |
| U23A G29C | 0.0923 |
| U23A G29U | 0 |
| C22G G68U | 0.0583 |
| U23C A77C | 0.256 |
| U23A A43U | 0.481 |
| U23A A43C | 0.312 |
| U23A A45G | 1.15 |
| U23A A45U | 0.727 |
| U23C C85A | 1.01 |
| C22U A56C | 0.525 |
| C22U A56U | 0.776 |
| U23C C64A | 0.743 |

| Variant | self-cleavage |
| --- | --- |
| U23C C64G | 0.76 |
| U23A G53C | 1.12 |
| U23A G53A | 0.95 |
| U23A G53U | 0.923 |
| U23C C61G | 0.945 |
| U23C C61U | 0.975 |
| U23C G76C | 1.05 |
| U23A A56C | 0.929 |
| U23C G50A | 0.95 |
| U23C G50U | 0.789 |
| U23C G50C | 0.864 |
| C22U G25C | 0.0852 |
| C22G U60G | 0 |
| C22G U60A | 0.141 |
| C22U C86A | 0.779 |
| U23A A78U | 0.256 |
| U23A C26G | 0.978 |
| U23C C36A | 0.172 |
| U23C C36G | 0.125 |
| U23C A56G | 0.87 |
| U23C A56C | 0.942 |
| U23A G25C | 0.208 |
| C22U C30G | 0.126 |
| U23A A77G | 1.03 |

| Variant | self-cleavage |
| --- | --- |
| U23A C85A | 0.68 |
| U23A C85G | 0.942 |
| U23A A83U | 0.449 |
| U23A A83G | 0.767 |
| U23A G50C | 0.831 |
| U23A G50A | 1.06 |
| U23C C33A | 0.0378 |
| U23C C33G | 0 |
| C22U C48A | 0.815 |
| U23C G39U | 0.716 |
| U23C G39C | 0.244 |
| C22U G39A | 0.185 |
| U23A G82C | 0.326 |
| U23A G82U | 0.425 |
| U23A G82A | 0.266 |
| U23G A43C | 0.131 |
| U23G A43G | 0.138 |
| U23C C44U | 0.554 |
| C22U C64U | 0.892 |
| U23C U27A | 0.898 |
| U23A G28U | 0.116 |
| C22U U79A | 0.0923 |
| C22U G50U | 0.521 |
| U23G A70G | 0.59 |

| Variant | self-cleavage |
| --- | --- |
| U23C G59U | 0.975 |
| U23C G59C | 1.26 |
| C22U G82A | 0.101 |
| C22U A45U | 0.325 |
| C22U A45C | 0.113 |
| U23A U47C | 1.14 |
| C22U G81C | 0.237 |
| C22U G81U | 0.04 |
| C22G G81U | 0.089 |
| C22G G81C | 0 |
| U23C C41U | 0.959 |
| U23C C41A | 0.789 |
| C22U U46C | 0.268 |
| C22U U46A | 0.295 |
| U23C C49G | 0.655 |
| U23C C49U | 0.852 |
| U23C C49A | 0.987 |
| U23C C24A | 0.287 |
| C22G U37C | 0.136 |
| C22G U37G | 0.0831 |
| U23G A56G | 0.787 |
| U23G A56C | 0.978 |
| U23A G74A | 0.465 |
| U23A C63G | 0.877 |

| Variant | self-cleavage |
| --- | --- |
| U23A C63A | 0.812 |
| C22G G74C | 0 |
| C22G G74A | 0.0241 |
| C22G G74U | 0.0841 |
| C22U G55A | 0.717 |
| U23A C66U | 0.943 |
| U23A C66A | 0.883 |
| U23C A51C | 1.08 |
| U23C C63U | 0.984 |
| U23C C63A | 0.86 |
| U23A U65G | 1.18 |
| U23A U65C | 1.09 |
| U23G A42U | 0.0997 |
| U23G A42G | 0.0665 |
| U23C G52A | 0.906 |
| U23C G52U | 1.11 |
| C22U A70G | 0.577 |
| C22U A70U | 0.587 |
| U23C U72G | 0.532 |
| U23C U72A | 0.776 |
| U23C G74C | 0.277 |
| U23C G74A | 0.217 |
| U23A U79A | 0.646 |
| U23A U79C | 0.369 |

| Variant | self-cleavage |
| --- | --- |
| U23A G80A | 0.18 |
| U23A G80U | 0.113 |
| U23C G28U | 0.249 |
| U23C G28C | 0.0639 |
| U23G A71U | 0.633 |
| U23G A71C | 0.256 |
| U23G A71G | 0.831 |
| U23A C30A | 0.466 |
| U23A C30U | 0.554 |
| U23C G31C | 0.141 |
| U23C C66U | 0.95 |
| U23C C66G | 0.923 |
| U23A C32A | 0.251 |
| C22U U37A | 0.166 |
| C22U U37G | 0.101 |
| U23A G68C | 0.831 |
| U23A G68A | 0.906 |
| U23A G68U | 1.09 |
| U23G A45U | 0.312 |
| C22U G38C | 0.122 |
| C22U G38A | 0.931 |
| U23A C61U | 1.25 |
| C22U A87C | 0.665 |
| C22U A87G | 0.737 |

| Variant | self-cleavage |
| --- | --- |
| C22U G29C | 0.0405 |
| U23C G38A | 0.17 |
| U23C G38C | 0.277 |
| C22U C85U | 0.577 |
| U23C G67U | 0.743 |
| C22G G59U | 0.0817 |
| U23C C32G | 0.0415 |
| C22U G31U | 0.0817 |
| C22U G31C | 0 |
| U23C U37G | 0.266 |
| C22U A78U | 0.197 |
| U23C A78U | 0.151 |
| U23C A78G | 0.739 |
| U23C G82U | 0.312 |
| U23C G82A | 0.314 |
| U23A C44A | 0.612 |
| U23A C44U | 0.566 |
| U23A C44G | 0.594 |
| C22G G55A | 0.0723 |
| C22G G55U | 0.0382 |
| U23C A83G | 0.742 |
| U23C A83U | 0.767 |
| U23C A83C | 0.302 |
